Target: T1, ETS-4 (Caenorhabditis elegans) (UniProt A8WFJ9)
T1 sequence: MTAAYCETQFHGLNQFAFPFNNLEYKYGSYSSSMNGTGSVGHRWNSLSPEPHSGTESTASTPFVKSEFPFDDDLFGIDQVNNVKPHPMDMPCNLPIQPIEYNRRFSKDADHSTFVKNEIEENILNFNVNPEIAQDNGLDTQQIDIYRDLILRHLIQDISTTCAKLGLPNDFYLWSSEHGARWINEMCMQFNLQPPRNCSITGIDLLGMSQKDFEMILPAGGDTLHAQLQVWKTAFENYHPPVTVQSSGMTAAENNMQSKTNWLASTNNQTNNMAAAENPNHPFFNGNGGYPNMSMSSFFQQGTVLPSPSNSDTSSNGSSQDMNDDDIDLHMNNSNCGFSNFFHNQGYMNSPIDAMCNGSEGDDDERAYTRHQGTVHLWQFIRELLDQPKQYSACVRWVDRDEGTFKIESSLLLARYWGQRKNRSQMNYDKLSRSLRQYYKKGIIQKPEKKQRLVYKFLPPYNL
Experiment: EMSA
Details: 25 mM Tris-Cl pH 7.9, 10% glycerol, 0.1 mM EDTA, 60 mM KCl, 6 mM MgCl2, 0.2 mg/ml BSA, 10 mM DTT, 50 ng poly[d(I-C)] in 20 ul, 1 h at 4 C; 6% native PAGE at …

“TCGACGGCCAAGCCGGATGTGAGTGCC (double strand) [ETS Site-WT (GGAT)]” was tested, and the Kd was 1 nM.

With “TCGACGGCCAAGCCGGAAGTGAGTGCC (double strand) [ETS Site-WT (GGAA)]” the Kd was 1 nM.

Source: paper PMC2940738
